Experimental data as given in US20200270125A1 (OMEROS, published 2020).
Read-outs that look alike come from different tables or passages of the source.

T1: human MASP-3 (construct not stated) (human)
T1 construct: also called MASP-3 antigen
T1 chain: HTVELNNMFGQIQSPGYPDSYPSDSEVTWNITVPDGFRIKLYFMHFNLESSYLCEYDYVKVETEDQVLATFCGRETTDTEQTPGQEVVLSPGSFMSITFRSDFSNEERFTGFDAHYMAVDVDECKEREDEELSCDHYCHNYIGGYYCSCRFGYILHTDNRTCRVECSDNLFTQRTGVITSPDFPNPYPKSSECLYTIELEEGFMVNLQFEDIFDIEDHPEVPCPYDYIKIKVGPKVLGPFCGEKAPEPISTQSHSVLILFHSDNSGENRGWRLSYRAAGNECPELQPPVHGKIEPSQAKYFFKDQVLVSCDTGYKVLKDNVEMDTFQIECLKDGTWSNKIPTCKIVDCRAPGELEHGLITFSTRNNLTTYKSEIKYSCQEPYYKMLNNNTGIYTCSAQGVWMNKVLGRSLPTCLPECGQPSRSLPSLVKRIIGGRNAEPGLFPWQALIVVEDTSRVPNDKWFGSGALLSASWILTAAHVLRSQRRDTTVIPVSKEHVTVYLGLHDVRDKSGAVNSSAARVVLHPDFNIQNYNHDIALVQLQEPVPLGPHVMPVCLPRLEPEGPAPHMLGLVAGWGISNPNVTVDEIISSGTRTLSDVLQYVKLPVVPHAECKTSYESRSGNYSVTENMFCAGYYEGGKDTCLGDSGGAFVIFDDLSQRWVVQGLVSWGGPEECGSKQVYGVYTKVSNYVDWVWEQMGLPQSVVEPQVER


How the values were obtained:
[1] = target: T1, human MASP-3 (construct not stated); assay: ELISA, monovalent Fab
[2] = target: T1, human MASP-3 (construct not stated); assay: ELISA, monovalent Fab

EC50 [1] | EC50 [2] | Binder
0.108 nM | 0.108 nM | h10D12_45-21 Fab (VH-45 and VL-21) (Fab, V domains shown, Humanized monovalent Fab; also called h10D12_45-21 parental Fab) VH: QIQLVQSGSELKKPGASVKVSCKASGYIFTSYGMSWVRQAPGKGLKWMGWINTYSGVPTYADDFKGRFVFSLDTSVRTPYLQISSLKAEDTAVYFCARGGEAMDYWGQGTLVTVSS VL: not shown
0.115 nM | – | h10D12_49-21 Fab (VH-49 and VL-21) (Fab, V domains shown, Humanized monovalent Fab) VH: QIQLVQSGSELKKPGASVKVSCKASGYIFTSYGMSWVRQAPGKGLKWMGWINTYSGVPTYADDFKGRFVFSLDTSVRTPYLQISSLKAEDTATYFCARGGEAMDYWGQGTLVTVSS VL: not shown
0.079 nM | 0.102 nM | h4D5_19-1 Fab (VH-19 and VL-1) (Fab, V domains shown, Humanized monovalent Fab; also called h4D5_19-1 parental Fab) VH: QVQLVQSGAEVKKPGASVKVSCKASGYTFTTDDINWVRQAPGQGLEWIGWIYPRDDRTKYNDKFKDRATLTVDTSSNTAYMELSSLRSEDTAVYYCSSLEDTYWGQGTLVTVSS VL: DIVMTQSPDSLAVSLGERATINCKSSQSLLNSRTRKNYLAWYQQKPGQPPKLLIYWASTRESGVPDRFSGSGSGTDFTLTISSLQAEDVAVYYCKQSYNLYTFGQGTKVEIKR
0.097 nM | 0.1 nM | h13B1_10-1 Fab (VH-10 and VL-1) (Fab, V domains shown, Humanized monovalent Fab; also called h13B1_10-1 parental Fab) VH: QVQLVQSGAEVKKPGASVKVSCKASGYTFTGKWIEWVRQAPGQGLEWIGEILPGTGSTNYNEKFKGRATFTADSSTSTAYMELSSLRSEDTAVYYCLRSEDVWGQGTLVTVSS VL: DIVMTQSPDSLAVSLGERATINCKSSQSLLNSRTRKNYLAWYQQKPGQPPKLLIYWASTRESGVPDRFSGSGSGTDFTLTISSLQAEDVAVYYCKQSYNIPTFGQGTKVEIKR
– | 0.12 nM | h13B1_10-1-ST Fab (VH-10 and VL-1-ST) (Fab, V domains shown, also called 13B1-ST) VH: QVQLVQSGAEVKKPGASVKVSCKASGYTFTGKWIEWVRQAPGQGLEWIGEILPGTGSTNYNEKFKGRATFTADSSTSTAYMELSSLRSEDTAVYYCLRSEDVWGQGTLVTVSS VL: DIVMTQSPDSLAVSLGERATINCKSSQSLLNTRTRKNYLAWYQQKPGQPPKLLIYWASTRESGVPDRFSGSGSGTDFTLTISSLQAEDVAVYYCKQSYNIPTFGQGTKVEIKR
– | 0.138 nM | h13B1_10-1-NQ Fab (VH-10 and VL-1-NQ) (Fab, V domains shown, also called 13B1-NQ) VH: QVQLVQSGAEVKKPGASVKVSCKASGYTFTGKWIEWVRQAPGQGLEWIGEILPGTGSTNYNEKFKGRATFTADSSTSTAYMELSSLRSEDTAVYYCLRSEDVWGQGTLVTVSS VL: DIVMTQSPDSLAVSLGERATINCKSSQSLLQSRTRKNYLAWYQQKPGQPPKLLIYWASTRESGVPDRFSGSGSGTDFTLTISSLQAEDVAVYYCKQSYNIPTFGQGTKVEIKR
0.085 nM | – | h4D5_14-1 Fab (VH-14 and VL-1) (Fab, V domains shown, Humanized monovalent Fab) VH: QVQLVQSGAEVKKPGASVKVSCKASGYTFTTDDINWVRQAPGQGLEWIGWIYPRDDRTKYNDKFKDKATLTVDTSSNTAYMELSSLRSEDTAVYYCSSLEDTYWGQGTLVTVSS VL: DIVMTQSPDSLAVSLGERATINCKSSQSLLNSRTRKNYLAWYQQKPGQPPKLLIYWASTRESGVPDRFSGSGSGTDFTLTISSLQAEDVAVYYCKQSYNLYTFGQGTKVEIKR
0.101 nM | – | h13B1_9-1 Fab (VH-9 and VL-1) (Fab, V domains shown, Humanized monovalent Fab) VH: QVQLVQSGAEVKKPGASVKVSCKASGYTFTGKWIEWVRQAPGQGLEWIGEILPGTGSTNYAQKFQGRATFTADSSTSTAYMELSSLRSEDTAVYYCLRSEDVWGQGTLVTVSS VL: DIVMTQSPDSLAVSLGERATINCKSSQSLLNSRTRKNYLAWYQQKPGQPPKLLIYWASTRESGVPDRFSGSGSGTDFTLTISSLQAEDVAVYYCKQSYNIPTFGQGTKVEIKR
